Assays:
hPOMC promoter = assay: NHR-promoter luciferase screen, hPOMC promoter; format: cell-based, human; settings: for Normalized Luc. act., normalized to control / Luc. act., normalized to lacZ: hPOMC promoter, HR/ligand component; for hPOMC promoter reporter activity: transcription factor +/- ligand, control = 1.00
How it was run: (§1)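 CV-1 cells were co-transfected with 50 ng NHR (homodimer or NHR/RXR heterodimer), 100 ng promoter-luciferase construct and 50 ng LacZ. Luciferase was normalized to LacZ and to a no-NHR/no-ligand control.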

mNPY promoter = assay: NHR-promoter luciferase screen, mNPY promoter; format: cell-based, mouse; settings: for Results of assays of transcription factor (+/- ligand) with mNPY: Table 6d, luciferase activity relative to control (control = 1.00); for Luc. act., normalized to lacZ / Normalized Luc. act., normalized to control: mNPY promoter, HR component with or without ligand; for Normalized Luc. act., normalized to control: relative to control
How it was run: as §1

hMDR1 promoter = assay: NHR-promoter luciferase screen, hMDR1 promoter; format: cell-based, human; settings: for Luc. act., normalized to lacZ / Normalized Luc. act., normalized to control: MDR1 promoter, HR/ligand component; for hMDR1 promoter reporter activity: transcription factor +/- ligand, control = 1.00
How it was run: as §1

hCYP3A4 promoter = assay: NHR-promoter luciferase screen, hCYP3A4 promoter; format: cell-based, human; settings: for Luc. act., normalized to lacZ / Normalized Luc. act., normalized to control: CYP3A4 promoter, HR/ligand component; for hCYP3A4 promoter reporter activity: transcription factor +/- ligand, control = 1.00
How it was run: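 CV-1 cells co-transfected with NHR homodimer or NHR/RXR heterodimer (pcDNA3.1, C-terminal V5H6 tag), promoter-luciferase construct and LacZ transfection control. Orphan receptors screened without ligand. Luciferase normalized to LacZ and to no-NHR/no-ligand control.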

RevErba promoter = assay: NHR-promoter luciferase screen, RevErba (RVRa) promoter; format: cell-based; design: key to mRevErba promoter reporter activity / Normalized Luc. act., normalized to control: luciferase activity normalized to lacZ and to control (no NHR/ligand); settings: for Luc. act., normalized to lacZ / Normalized Luc. act., normalized to control / negative reciprocal of normalized Luc. act. (fold repression; Table 33) / normalized Luc. act. on a logarithmic scale (column without head, Table 33): RVRa promoter; for Luc. act., normalized to lacZ / Normalized Luc. act., normalized to control: HR component without or with ligand; for negative reciprocal of normalized Luc. act. (fold repression; Table 33): given only where activity is below control; for normalized Luc. act. on a logarithmic scale (column without head, Table 33): log10 of activity normalized to control; for mRevErba promoter reporter activity: transcription factor +/- ligand, control = 1.00
How it was run: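 CV-1 cells co-transfected with NHR (pcDNA3.1, C-terminal V5H6 tag) as homodimer or RXR heterodimer, RevErbα promoter–luciferase reporter and LacZ transfection control; ligand added where applicable. Luciferase normalized to LacZ and to no-NHR/no-ligand control.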

Molecule | Normalized Luc. act., normalized to control (hPOMC promoter) | hPOMC promoter reporter activity (hPOMC promoter) | Results of assays of transcription factor (+/- ligand) with mNPY (mNPY promoter) | Luc. act., normalized to lacZ (mNPY promoter) | Normalized Luc. act., normalized to control (mNPY promoter) | Luc. act., normalized to lacZ (hMDR1 promoter) | Normalized Luc. act., normalized to control (hMDR1 promoter) | hMDR1 promoter reporter activity (hMDR1 promoter) | Luc. act., normalized to lacZ (hCYP3A4 promoter) | Normalized Luc. act., normalized to control (hCYP3A4 promoter) | hCYP3A4 promoter reporter activity (hCYP3A4 promoter) | Luc. act., normalized to lacZ (RevErba promoter) | Normalized Luc. act., normalized to control (RevErba promoter) | negative reciprocal of normalized Luc. act. (fold repression; Table 33) (RevErba promoter) | normalized Luc. act. on a logarithmic scale (column without head, Table 33) (RevErba promoter) | mRevErba promoter reporter activity (RevErba promoter) | Luc. act., normalized to lacZ (hPOMC promoter) | luciferase/LacZ, hPOMC (selected results) (hPOMC promoter; hPOMC promoter-luciferase, NHR +/- ligand, control = 1.0)
CTF1: COUP-TF1 (NR2F1), cDNA driver (protein, UniProt P10589 1-423, looked up) COUP transcription factor 1: MAMVVSSWRDPQDDVAGGNPGGPNPAAQAARGGGGGAGEQQQQAGSGAPHTPQTPGQPGAPATPGTAGDKGQGPPGSGQSQQHIECVVCGDKSSGKHYGQFTCEGCKSFFKRSVRRNLTYTCRANRNCPIDQHHRNQCQYCRLKKCLKVGMRREAVQRGRMPPTQPNPGQYALTNGDPLNGHCYLSGYISLLLRAEPYPTSRYGSQCMQPNNIMGIENICELAARLLFSAVEWARNIPFFPDLQITDQVSLLRLTWSELFVLNAAQCSMPLHVAPLLAAAGLHASPMSADRVVAFMDHIRIFQEQVEKLKALHVDSAEYSCLKAIVLFTSDACGLSDAAHIESLQEKSQCALEEYVRSQYPNQPSRFGKLLLRLPSLRTVSSSVIEQLFFVRLVGKTPIETLIRDMLLSGSSFNWPYMSIQCS | 0.0 | 0.00 | 0.47 | 39.2 | 0.5 | 0.3 | 0.9 | 0.92 | 2.6 | 0.6 | 0.59 | 18.5 | 0.7 | −1.51 | −0.18 | 0.66 |  | 
CTF3: COUP-TF3 (NR2F6), cDNA driver (protein, UniProt P10588 1-404, looked up) Nuclear receptor subfamily 2 …: MAMVTGGWGGPGGDTNGVDKAGGYPRAAEDDSASPPGAASDAEPGDEERPGLQVDCVVCGDKSSGKHYGVFTCEGCKSFFKRSIRRNLSYTCRSNRDCQIDQHHRNQCQYCRLKKCFRVGMRKEAVQRGRIPHSLPGAVAASSGSPPGSALAAVASGGDLFPGQPVSELIAQLLRAEPYPAAAGRFGAGGGAAGAVLGIDNVCELAARLLFSTVEWARHAPFFPELPVADQVALLRLSWSELFVLNAAQAALPLHTAPLLAAAGLHAAPMAAERAVAFMDQVRAFQEQVDKLGRLQVDSAEYGCLKAIALFTPDACGLSDPAHVESLQEKAQVALTEYVRAQYPSQPQRFGRLLLRLPALRAVPASLISQLFFMRLVGKTPIETLIRDMLLSGSTFNWPYGSGQ | 0.4 | 0.42 | 0.48 | 40.6 | 0.5 | 0.4 | 1.4 | 1.36 | 6.1 | 1.4 | 1.37 | 19.1 | 0.7 | −1.467 | −0.17 | 0.68 | 1.8 | 
CTF2: COUP-TF2 (NR2F2), cDNA driver (protein, UniProt P24468 1-414, looked up) COUP transcription factor 2: MAMVVSTWRDPQDEVPGSQGSQASQAPPVPGPPPGAPHTPQTPGQGGPASTPAQTAAGGQGGPGGPGSDKQQQQQHIECVVCGDKSSGKHYGQFTCEGCKSFFKRSVRRNLSYTCRANRNCPIDQHHRNQCQYCRLKKCLKVGMRREAVQRGRMPPTQPTHGQFALTNGDPLNCHSYLSGYISLLLRAEPYPTSRFGSQCMQPNNIMGIENICELAARMLFSAVEWARNIPFFPDLQITDQVALLRLTWSELFVLNAAQCSMPLHVAPLLAAAGLHASPMSADRVVAFMDHIRIFQEQVEKLKALHVDSAEYSCLKAIVLFTSDACGLSDVAHVESLQEKSQCALEEYVRSQYPNQPTRFGKLLLRLPSLRTVSSSVIEQLFFVRLVGKTPIETLIRDMLLSGSSFNWPYMAIQ | 0.0 | 0.00 | 0.65 | 54.7 | 0.7 | 0.3 | 1.0 | 1.01 | 2.7 | 0.6 | 0.61 | 27.2 | 1.0 | −1.027 | −0.01 | 0.97 |  | 
ERR3: Estrogen Related Receptor γ (NR3B3, ERRg), cDNA driver (protein, UniProt P62508 1-458, looked up) Estrogen-related receptor …: MDSVELCLPESFSLHYEEELLCRMSNKDRHIDSSCSSFIKTEPSSPASLTDSVNHHSPGGSSDASGSYSSTMNGHQNGLDSPPLYPSAPILGGSGPVRKLYDDCSSTIVEDPQTKCEYMLNSMPKRLCLVCGDIASGYHYGVASCEACKAFFKRTIQGNIEYSCPATNECEITKRRRKSCQACRFMKCLKVGMLKEGVRLDRVRGGRQKYKRRIDAENSPYLNPQLVQPAKKPYNKIVSHLLVAEPEKIYAMPDPTVPDSDIKALTTLCDLADRELVVIIGWAKHIPGFSTLSLADQMSLLQSAWMEILILGVVYRSLSFEDELVYADDYIMDEDQSKLAGLLDLNNAILQLVKKYKSMKLEKEEFVTLKAIALANSDSMHIEDVEAVQKLQDVLHEALQDYEAGQHMEDPRRAGKMLMTLPLLRQTSTKAVQHFYNIKLEGKVPMHKLFLEMLEAKV | 4.1 | 4.09 | 1.11 | 93.1 | 1.1 | 0.2 | 0.8 | 0.79 | 4.5 | 1.0 | 1.02 | 123.1 | 4.4 |  | 0.64 | 4.40 | 17.6 | 4.1

Source: patent publication US20110263454A1, “Methods of Identifying Functional Characteristics of Promoters, Transcription Modifying Proteins and Transcription Modulating Agents” (Salk Institute for Biological Studies, priority 2008, published 2011)
